# In patent US20240425587A1 (Alector, published 2024):
# Positions count from the first letter of the chain named. Numbers in names are those of the source.
# B1: E10 (antibody, V domains shown)
# VH: EVQLLESGGGLVKPGGSLRLSCAASGFTFSNYAMSWVRQAPGKGLEWVAVIYSGADTYYADSVKGRFTISRDDSKNTLYLQMNSLKTEDTAVYYCTRDIGLNYGDYELFDYWGQGTLVTVSS
# VL: DIVMTQSPLSLPVTPGEPASISCRSSQSLLHSNGYNYLDWYLQKPGQSPQLLIYDASNLETGVPDRFSGSGSGTDFTLKISRVEAEDVGVYYCMQGLQTPYVFGQGTKLEIK
# notes: phage campaign
# B2: E9 (antibody, V domains shown)
# VH: QVQLVQSGAEVKKPGASVKVSCKASGGTFSSYSINWVRQAPGQGLEWMGWINPHSGATKYAERFQGRVTMTRDTSTSTVYMELSSLRSEDTAVYYCASAEEPYDILTGYYGGDAFDIWGQGTMVTVSS
# VL: DIQMTQSPSSLSASVGDRVTITCRASQSISKYLNWYQQKPGKAPKLLIYDASNLQAGVPSRFSGSGSGTDFTLTISSLQPEDFATYYCQQANSFPYTFGQGTKLEIK
# notes: phage campaign
# B3: E11 (antibody, V domains shown)
# VH: QVQLVQSGAEVKKPGSSVKVSCKASGGTFSSYDISWVRQAPGQGLEWMGGIIPTFVTPKYAQKFQGRVTITADESTSTAYMELSSLRSEDTAVYYCAREGPKQLEEYYYYYMDVWGKGTTVTVSS
# VL: B2 VL with S26T, S28A, K31N, Y32S, N34A, D50A, N53Y, A56S, N92Y, Y96W
# notes: phage campaign
# B4: E1 (antibody, V domains shown)
# VH: EVQLVESGGGLVQPGESLKLSCESNEYEFPSHDMSWVRKTPEKRLELVAAINSDGGSTYYPDTMERRFIISRDNTKKTLYLQMSSLRSEDTALYYCARQLMGTGAMDYWGQGTSVTVSS
# VL: DIQMTQSSSYLSVSLGGRVTITCKASDHINNWLAWYQQKPGNAPRLLISGATSLETGVPSRFSGSGSGKDYTLSITSLQTEDVATYYCQQYWSTPYTFGGGTKLEIK
# notes: second hybridoma campaign
# B5: E15 (antibody, V domains shown)
# VH: QVQLQQSGAELVKPGASVKLSCKASGNTFTIYDINWVRQRPEQGLEWIGWIFPGDGSTKYNGKFKGKATLTTDKSSSTAYMQLSRLTSEDSAVYFCARRAHYYGSSFDYWGQGTTLTVSS
# VL: B4 VL with A43G, T52I, T56I, D70E, T94P, Y96W
# notes: B-cell cloning campaign (mice)
# B6: E3 (antibody, V domains shown)
# VH: QAYLQQSGAELVRSGASVKMSCKASGNTFTYYNLHWIRQTPGQGLEWIGYIFPGNGDAYYNQNFKGKATLTADTSSSTAYMQISSLTFEDSAVYFCARSPHYYGSGFDYWGQGTPLTVSS
# VL: B4 VL with R18G, Y96W
# notes: second hybridoma campaign
# B7: A11 (antibody, V domains shown)
# VH: QVQLVQSGAEVKKPGASVKVSCKASGYTFTSYYMHWVRQAPGQGLEWMGWINPNNGDTNYAQKFQGRVTMTRDTSTSTVYMELSSLRSEDTAVYYCARAGYFDWLLDYYGMDVWGQGTTVTVSS
# VL: DIVMTQSPLSLPVTPGEPASISCRSSQSLLHSNGYNYLDWYLQKPGQSPQLLIYDASNLETGVPDRFSGSGSGTDFTLKISRVEAEDVGVYYCMQALQTPFGPGTKVDIK
# notes: phage campaign; same VH/VL as E17
# B8: E8 (antibody, V domains shown)
# VH: QVQLVQSGAEVKKPGASVKVSCKASGYAFTNYDINWVRQAPGQGLEWLGWINPYSGDTNYAQKLQGRVTMTRDTSTSTVYMELSSLRSEDTAVYYCTIPSSYGEYYYYYMDVWGKGTTVTVSS
# VL: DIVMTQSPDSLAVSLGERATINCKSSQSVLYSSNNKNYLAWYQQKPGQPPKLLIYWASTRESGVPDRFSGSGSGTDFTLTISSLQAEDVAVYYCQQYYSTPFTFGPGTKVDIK
# notes: phage campaign
# B9: E2 (antibody, V domains shown)
# VH: EVQLQESGPSLVKPSQTLSLTCSVTGDSITSGYWNWIRKFPGDKLEYMGYISYTGTTYYNPSLKSRVSITRDTSKNQYYLQLHSVTTEDTATYYCARYPYGNFPFDYWGQGTTLTVSS
# VL: SIVMTQTPKFLLVSAGDRVTITCKASQSVRNDVAWYQQRPGQSPKLLIFYASSRYIGAPDRFTGSGYGTDFTFTISTVQAEDLAVYFCQQDYSSPYTFGGGTTLEIK
# notes: second hybridoma campaign
# B10: A13 (antibody, V domains shown)
# VH: QVQLVQSGAEVKKPGSSVKVSCKASGYLFSDYAMNWVRQAPGQGLEWVGWIIPNSGGTKFAQTFQGRVTITADESTSTAYMELSSLRSEDTAVYYCAREHGVVPADHYYYGMDVWGQGTTVTVSS
# VL: EIVMTQSPATLSVSPGERATLSCRASQSISSSYLAWYQQKPGQAPRLLIYGASTRATGIPARFSGSGSGTEFTLTISSLQSEDFAVYYCQQYGRFPWTFGQGTKVEIK
# notes: phage campaign; same VH/VL as E19
# B11: E14 (antibody, V domains shown)
# VH: QVQLVQSGAEVKKPGSSVKVSCKASGYTFTNYDINWVRQAPGQGLEWMGGIIPIFGTANYAQKFQGRVTITADESTSTAYMELSSLRSEDTAVYYCTNGVGAGWFDLWGRGTLVTVSS
# VL: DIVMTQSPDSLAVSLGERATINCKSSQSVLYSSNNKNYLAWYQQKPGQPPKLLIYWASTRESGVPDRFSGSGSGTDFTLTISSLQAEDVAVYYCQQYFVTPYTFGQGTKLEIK
# notes: phage campaign
# B12: E6 (antibody, V domains shown)
# VH: QVQLVQSGAEVKKPGASVKVSCKASGGTFSSYAISWVRQAPGQGLEWMGWINPNSGGTNFAQKFQGRVTMTRDTSTSTVYMELSSLRSEDTAVYYCARGSGSYPLDYWGRGTLVTVSS
# VL: B2 VL with S28D, K31T, Y32W, N34A, N53S, Q55E, A56S, A91T, N92Y, F94A
# notes: phage campaign
# B13: E16 (antibody, V domains shown)
# VH: QVQLKESGPGLVAPSQSLSITCTVSGFSLSGYGVNWVRHLPGKGLEWLGMIWGDGHTDYNSALKSRLSISKDNSKSQVFLKMNSLQTDDTARYYCARDPRFYYGSGPYWYFDVWGAGTTVTVSS
# VL: DIVMTQSQKFMSTSVGDRVNITCKASQNVGTAVAWYQQKPGQSPKLLIYSASNRYTGVPDRFTGSGSGTDFTLTISNMQSEDLADYFCQQYSSYPLTFAVGTKLELK
# notes: as for B5
# B14: E7 (antibody, V domains shown)
# VH: EVQLLESGGGLVKPGGSLRLSCAASGFTFSSYWMSWVRQAPGKGLEWVSAISGSGGSTYYADSVKGRFTISRDDSKNTLYLQMNSLKTEDTAVYYCARHEEVTMVRGVIFAGGITNWGQGTTVTVSS
# VL: B10 VL with Q27E, I29V, S30T, R94S, F95S, W97L, Q101G
# notes: phage campaign
# B15: E19 (antibody, V domains shown)
# VH: B10 VH
# VL: B10 VL
# notes: phage campaign; same VH/VL as A13
# Target: T1, human PILRA, G78 variant, ectopically expressed on 293 cells (human, UniProt Q9UKJ1 20-303)
# T1 construct: the cells are labelled G78; also called hA G78 OE; hA
# Test: flow cytometry, 293 cells expressing target
# Description: (§1) Briefly, conditioned media containing antibodies were incubated with 293 cells for 30 min at 4° C., washed twice, and then detected with anti-mouse IgG Alexa 647.
# T1 sequence (Q9UKJ1 other isoform, or with tags, fused parts or gaps mutant): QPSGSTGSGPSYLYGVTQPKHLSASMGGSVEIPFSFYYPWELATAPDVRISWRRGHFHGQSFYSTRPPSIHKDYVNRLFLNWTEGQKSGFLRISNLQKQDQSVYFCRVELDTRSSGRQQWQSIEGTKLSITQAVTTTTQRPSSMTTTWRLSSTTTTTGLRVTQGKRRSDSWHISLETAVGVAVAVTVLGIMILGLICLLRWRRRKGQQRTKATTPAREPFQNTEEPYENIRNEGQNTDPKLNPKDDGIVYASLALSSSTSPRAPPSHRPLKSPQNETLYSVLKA
row,Binder,EC50 [µg/mL]
1,B1,0.1
2,B2,1.2
3,B3,0.2
4,B4,40.4
5,B5,4.73
6,B6,0.22
7,B7,0.6
8,B8,0.4
9,B9,0.4
10,B10,0.8
11,B11,0.4

# Target: T2, human PILRB, ectopically expressed on 293 cells (human, UniProt Q9UKJ0 20-227)
# T2 construct: also called hB
# Test: flow cytometry, 293 cells expressing target
# Description: as §1
# T2 sequence (Q9UKJ0 20-227): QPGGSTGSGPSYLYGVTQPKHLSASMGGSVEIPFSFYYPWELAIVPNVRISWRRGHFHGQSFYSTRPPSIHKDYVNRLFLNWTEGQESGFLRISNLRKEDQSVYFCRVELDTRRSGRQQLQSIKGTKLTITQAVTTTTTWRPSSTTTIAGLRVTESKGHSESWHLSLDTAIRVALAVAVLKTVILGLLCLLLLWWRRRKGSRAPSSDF
Binder,binding result,EC50 [µg/mL]
B1,no binding,
B2,no binding,
B12,no binding,
B3,,5.9
B4,no binding,
B5,,16.4
B6,,0.78
B7,,1.1
B13,,3.1
B8,,2.9
B9,,2.9
B14,no binding,
B10,,6.2
B11,no binding,

# Target: cynomolgus PILRA, ectopically expressed on 293 cells (cynomolgus monkey)
# Test: flow cytometry, 293 cells expressing target
# Description: as §1
# Chain of cynomolgus PILRA, ectopically expressed on 293 cells (cynomolgus monkey) (chain, as listed by the source): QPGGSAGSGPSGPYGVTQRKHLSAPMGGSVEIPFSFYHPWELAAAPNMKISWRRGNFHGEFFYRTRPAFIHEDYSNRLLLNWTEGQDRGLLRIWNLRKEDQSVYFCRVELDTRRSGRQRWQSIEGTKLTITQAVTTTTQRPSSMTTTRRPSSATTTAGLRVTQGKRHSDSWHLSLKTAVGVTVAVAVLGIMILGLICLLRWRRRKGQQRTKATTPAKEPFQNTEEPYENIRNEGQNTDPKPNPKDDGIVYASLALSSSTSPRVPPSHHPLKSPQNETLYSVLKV
Binder,binding result,EC50 [µg/mL]
B1,no binding,
B2,no binding,
B12,no binding,
B3,no binding,
B4,no binding,
B5,,14.6
B6,,0.15
B7,,10.8
B8,no binding,
B9,,92
B14,no binding,
B10,,0.8
B11,,0.6

# Target: T3, murine PILRA, ectopically expressed on 293 cells (murine, UniProt Q2YFS3 32-302)
# T3 construct: also called mA
# Test: flow cytometry, 293 cells expressing target
# Description: as §1
# T3 sequence (Q2YFS3 32-302): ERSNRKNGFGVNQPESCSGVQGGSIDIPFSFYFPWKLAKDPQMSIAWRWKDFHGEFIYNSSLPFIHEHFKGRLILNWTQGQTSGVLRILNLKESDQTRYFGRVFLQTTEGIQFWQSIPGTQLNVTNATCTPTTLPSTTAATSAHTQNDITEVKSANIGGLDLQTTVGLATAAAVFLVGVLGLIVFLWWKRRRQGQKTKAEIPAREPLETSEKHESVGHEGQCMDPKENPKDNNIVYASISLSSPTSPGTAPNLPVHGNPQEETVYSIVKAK
row,Binder,binding result
1,B1,no binding
2,B2,no binding
3,B12,no binding
4,B3,no binding
5,B4,no binding
6,B5,no binding
7,B6,no binding
8,B13,no binding
9,B8,no binding
10,B9,no binding
11,B14,no binding
12,B10,no binding
13,B11,no binding

# Target: T4, murine PILRB, ectopically expressed on 293 cells (murine, UniProt Q2YFS2 29-224)
# T4 construct: whole, on cells; also called mB
# Test: flow cytometry, 293 cells expressing target
# Description: as §1
# T4 sequence (Q2YFS2 29-224): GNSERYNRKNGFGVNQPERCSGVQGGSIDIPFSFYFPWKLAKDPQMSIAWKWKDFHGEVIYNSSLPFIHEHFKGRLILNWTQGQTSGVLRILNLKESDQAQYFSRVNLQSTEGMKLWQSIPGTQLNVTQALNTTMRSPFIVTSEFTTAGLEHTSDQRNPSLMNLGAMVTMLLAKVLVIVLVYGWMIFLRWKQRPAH
row,Binder,binding result
1,B1,no binding
2,B2,no binding
3,B12,no binding
4,B3,no binding
5,B4,no binding
6,B5,no binding
7,B6,no binding
8,B13,no binding
9,B8,no binding
10,B9,no binding
11,B14,no binding
12,B10,no binding
13,B11,no binding

# Target: T5, human PILRA, c-term His-Avi tag (human, UniProt Q9UKJ1 20-197, limits assumed)
# T5 construct: not shown: C-terminal His-Avi tag
# Test: SPR (Biacore), antibody captured, PILRA as analyte
# Description: Experiments were performed to determine the kinetics of anti-PILRA antibody binding to human […]. The assay is depicted in FIG. 6. A rabbit anti-PILRA was used as a positive control, and H1 LALAPS was used as a negative control. Human PILRA (human PILRA, c-term His-Avi tag, 0.68 mg/mi) was used as the antigen. The running buffer was HBSTE/0.5% BSA, pH 7.4, and the regeneration solution was 10 mM glycine-HCl (pH 2.1). In the assay, antibodies were captured at 10 μg/ml by immobilized anti-huFc or anti-msFc on a Biacore CM5 chip, and human PILRA flowed at 33, 100, and 300 nM. The surface was regenerated after each analyte, and all curves were double-referenced with buffer injections.
# T5 sequence (Q9UKJ1 20-197 limits assumed): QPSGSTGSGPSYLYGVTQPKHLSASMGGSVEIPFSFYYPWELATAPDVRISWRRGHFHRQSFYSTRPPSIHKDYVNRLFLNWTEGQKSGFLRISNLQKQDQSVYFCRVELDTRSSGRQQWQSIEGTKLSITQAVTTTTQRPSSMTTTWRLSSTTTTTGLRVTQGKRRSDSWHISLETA
Binder,Kd [nM],koff [s⁻¹],kon [M⁻¹ s⁻¹],t½ [min]
B1,14.5,0.0016,110000,
B5,31.3,0.0017,53000,6.9
B7,14.4,0.0014,96000,
B15,86.1,0.009,100000,
